Measurements as given in US20210380680A1 (ZLLP, published 2021).
Read-outs that look alike come from different tables or passages of the source.

What was measured:
[1] = target: T1, human Claudin 18.2 (CLDN18.2) (human, UniProt P56856-2 1-261); experiment: FACS Exp. 1, MFI ratio CHO-18.2 over CHO-18.1
[2] = target: CLDN18.2 endogenously expressed on SNU620 gastric cancer cells (UniProt P56856); experiment: FACS Exp. 3, SNU620 cells
[3] = target: T1, human Claudin 18.2 (CLDN18.2); experiment: FACS Exp. 2, MFI ratio CHO-18.2 over CHO-18.1
[4] = target: T1, human Claudin 18.2 (CLDN18.2); experiment: FACS on CHO-CLDN18.2 cells
Procedure: Binding curves were generated to rank the binding affinities of hybridoma antibodies. Briefly, a total of 1×10⁵ CHO-CLDN18.2 cells for each well were seeded in 96-well plate and washed by FACS buffer (DPBS containing 2% FBS) twice. Cells were incubated by series diluted purified hybridoma antibodies for 1 h. After primary antibody incubation, cells were washed by FACS buffer for two times. […] FlowJo software was used for analysis. Data was plotted as the logarithm of antibody concentration versus mean fluorescence signals. Nonlinear regression analysis was performed by GraphPad Prism 6 (GraphPad Software) and EC50 values were calculated.

[5] = target: T1, human Claudin 18.2 (CLDN18.2); experiment: cell-based or functional assay
[6] = target: T1, human Claudin 18.2 (CLDN18.2); experiment: cell-based or functional assay; remark: listed apart in the source
[7] = target: T1, human Claudin 18.2 (CLDN18.2); experiment: cell-based or functional assay; remark: listed apart in the source
[8] = target: T1, human Claudin 18.2 (CLDN18.2); experiment: cell-based or functional assay; remark: listed apart in the source
[9] = target: T1, human Claudin 18.2 (CLDN18.2); experiment: FACS on CHO-CLDN18.2 cells; remark: listed apart in the source
[10] = target: T1, human Claudin 18.2 (CLDN18.2); experiment: cell-based or functional assay; remark: listed apart in the source
[11] = target: T1, human Claudin 18.2 (CLDN18.2); experiment: cell-based or functional assay; remark: listed apart in the source
[12] = target: T2, CLDN18.2 endogenously expressed on SNU620 gastric cancer cells (UniProt P56856-2 1-261, limits assumed); experiment: FACS Exp. 3, SNU620 cells
T2 construct: whole, on cells; also called SU620

[13] = target: T1, human Claudin 18.2 (CLDN18.2); experiment: FACS on CHO-CLDN18.2 cells; remark: listed apart in the source
[14] = target: T1, human Claudin 18.2 (CLDN18.2); experiment: FACS

## human IgG1 isotype control (antibody)
[1]
  MFI CHO-18.2/CHO-18.1 (@30 ug/ml): 1.1
[2]
  MFI SNU620 (@30 ug/ml): 15.7 MFI
[3]
  MFI CHO-18.2/CHO-18.1 (@30 ug/ml): 1

B1: 357B8F8 (mouse hybridoma antibody) (antibody, V domains shown)
VH: QVQLKESGPGLVAPSQSLSITCTVSGFSLTSYGVHWVRQPPGKGLEWLGVIWPGGNTNYNSALMSRLSISKDNSKSQVFLKMNSLQTDDTAMYYCARDRRLAMDYWGQGTSVTVSS
VL: DIVMTQSPSSLTVTAGEKVTMTCKSSQSLLNSGNQKNYLTWYQQKPGQPPKLLIYWASTRESGVPDRFTGSGSGTDFTLTISILQAEDLAVYYCQNDYSYPFTFGSGTKLEIK
notes: purified mouse IgG from hybridoma
[4]
  EC50: 3.26 nM

B2: hz282-1 (antibody, V domains shown)
VH: QVQLQESGPGLVKPSETLSLTCTVSGFSLTSYNVYWIRQPPGKGLEWIGVIWNTGATRYNSALKSRVTISVDTSKNQFSLKLSSVTAADTAVYYCARDSAMPAIPFAYWGQGTLVTVSS
VL: DIVMTQSPDSLAVSLGERATINCKSSQSLFGSVRQKNYLAWYQQKPGQPPKLLIYLASTRESGVPDRFSGSGSGTDFTLTISSLQAEDVAVYYCQQYYDIPWTFGGGTKVEIK
notes: humanized IgG; constant regions not specified; also called hz282-l
[1]
  MFI_CHO-18.2/CHO-18.1 (@30 ug/ml): 262
[2]
  MFI SNU620 (@30 ug/ml): 69.6 MFI

B3: hz282-17 (antibody, V domains shown)
VH: QVQLQESGPGLVKPSETLSLTCTVSGFSLTSYNVYWIRQPPGKGLEWIGVIWNTGATRYNSALKSRVTISVDTSKNQFSLKLSSVTAADTAVYYCARDSAMPAIPFAYWGQGTLVTVSS
VL: DIVMTQSPSSLSASVGDRVTINCKSSQSLFGSVRQKNYLAWYQQKPGKSPKLLIYLASTRESGVPDRFSGSGSGTDFTLTISSLQPEDFAKYYCQQYYDIPWTFGGGTKVEIK
notes: humanized IgG; constant regions not specified
[1]
  MFI_CHO-18.2/CHO-18.1 (@30 ug/ml): 249
[2]
  MFI SNU620 (@30 ug/ml): 176 MFI

B4: hz282-13 (antibody, V domains shown)
VH: QVQLQESGPGLVKPSETLSLTCTVSGFSLTSYNVYWIRQPPGKGLEWIGVIWNTGATRYNSALKSRVTISVDTSKNQFSLKLSSVTAADTAVYYCARDSAMPAIPFAYWGQGTLVTVSS
VL: DIQMTQSPSSLSASVGDRVTITCKSSQSLFGSVRQKNYLAWYQQKPGKSPKLLIYLASTRESGVPDRFSGSGSGTDFTLTISSLQPEDFAKYYCQQYYDIPWTFGGGTKVEIK
notes: as for B3
[1]
  MFI_CHO-18.2/CHO-18.1 (@30 ug/ml): 201
[2]
  MFI SNU620 (@30 ug/ml): 144 MFI

B5: hz282-5 (antibody, V domains shown)
VH: QVQLQESGPGLVKPSETLSLTCTVSGFSLTSYNVYWIRQPPGKGLEWIGVIWNTGATRYNSALKSRVTISVDTSKNQFSLKLSSVTAADTAVYYCARDSAMPAIPFAYWGQGTLVTVSS
VL: DIVMTQSPDSLAVSLGERATINCKSSQSLFGSVRQKNYLAWYQQKPGQSPKLLIYLASTRESGVPDRFSGSGSGTDFTLTISSLQAEDVAKYYCQQYYDIPWTFGGGTKVEIK
notes: as for B3
[1]
  MFI_CHO-18.2/CHO-18.1 (@30 ug/ml): 310
[2]
  MFI SNU620 (@30 ug/ml): 135 MFI

B6: hz282-9 (antibody, V domains shown)
VH: QVQLQESGPGLVKPSETLSLTCTVSGFSLTSYNVYWIRQPPGKGLEWIGVIWNTGATRYNSALKSRVTISVDTSKNQFSLKLSSVTAADTAVYYCARDSAMPAIPFAYWGQGTLVTVSS
VL: DIQMTQSPSSLSASVGDRVTITCKSSQSLFGSVRQKNYLAWYQQKPGKAPKLLIYLASTRESGVPSRFSGSGSGTDFTLTISSLQPEDFATYYCQQYYDIPWTFGGGTKVEIK
notes: as for B3
[1]
  MFI_CHO-18.2/CHO-18.1 (@30 ug/ml): 163
[2]
  MFI SNU620 (@30 ug/ml): 308 MFI

B7: 413H9F8-H2L2 (antibody, V domains shown)
VH: EVQLVESGGGLVQPGGSLRLSCAASGFTFSSFGMHWVRQAPGKGLEWVAYISSGSSPIYYVDKLKGRFTISRDNAKNSLYLQMNSLRAEDTAVYYCARAGYAVRNALDYWGQGTLVTVSS
VL: DIVMTQSPDSLAVSLGERATINCKSSQSLLNVGNQKNYLAWYQQKPGQPPKLLIYGASTRESGVPDRFSGSGSGTDFTLTISSLQAEDVAVYFCQNDLFYPLTFGGGTKVEIK
notes: as for B3
[5]
  % specific cytotoxicity @ 6.67 nM, NUGC4-CLDN18.2, PBMC: 33.2%
  ADCC EC50, NUGC4-CLDN18.2, PBMC: 6.14 nM
[6]
  CDC EC50, human serum, CHO-CLDN18.2: 0.84 nM
[7]
  % ADCC @ 6.67 nM, NCI-N87-CLDN18.2, FcR-TANK: 13.7%
  ADCC EC50, NCI-N87-CLDN18.2, FcR-TANK: 0.33 nM
[8]
  ADCC EC50, NUGC4-CLDN18.2, PBMC: 0.48 nM
[9]
  EC50: 1.97 nM

B8: 413H9F8-H2L2-MG-DL (antibody, V domains shown)
VH: EVQLVESGGGLVQPGGSLRLSCAASGFTFSSFGMHWVRQAPGKGLEWVAYISSGSSPIYYVDKLKGRFTISRDNAKNSLYLQMNSLRAEDTAVYYCARAGYAVRNALDYWGQGTLVTVSS
VL: DIVMTQSPDSLAVSLGERATINCKSSQSLLNVGNQKNYLAWYQQKPGQPPKLLIYGASTRESGVPDRFSGSGSGTDFTLTISSLQAEDVAVYFCQNDLFYPLTFGGGTKVEIK
[8]
  ADCC EC50, NUGC4-CLDN18.2, PBMC: 0.0046 nM

B9: 413H9F8-H2L2-V2-DL (antibody, V domains shown)
VH: EVQLVESGGGLVQPGGSLRLSCAASGFTFSSFGMHWVRQAPGKGLEWVAYISSGSSPIYYVDKLKGRFTISRDNAKNSLYLQMNSLRAEDTAVYYCARAGYAVRNALDYWGQGTLVTVSS
VL: DIVMTQSPDSLAVSLGERATINCKSSQSLLNVGNQKNYLAWYQQKPGQPPKLLIYGASTRESGVPDRFSGSGSGTDFTLTISSLQAEDVAVYFCQNDLFYPLTFGGGTKVEIK
[8]
  ADCC EC50, NUGC4-CLDN18.2, PBMC: 0.0148 nM

B10: 282A12F3 (T62A) (antibody, human IgG1, kappa, V domains shown)
VH: QVQLKESGPVLVQPSQTLSLTCTVAGFSLTSYNVYWVRQPPGKGLEWMGVIWNTGATRYNSALKSRLSISKDTSKSQVFLKMNSLQTEDTATYYCARDSAMPAIPFAYWGQGTLVTVSS
VL: DIVMTQSPSSLAVSAGETVTINCKSSQSLFGSVRQKNYLAWYQQKPGQSPKLLIYLASTRESGVPDRFIGSGSGTDFTLTISSVQAEDLAKYYCQQYYDIPWTFGGGTKLELKR
notes: chimeric human IgG1, PTM site removed; also called 282A12F3-VH-NSA (T62A); 282A12 (T62A)
[6]
  CDC EC50, human serum, CHO-CLDN18.2: 10.4 nM
[10]
  % specific cytotoxicity @ 6.67 nM, NUGC4-CLDN18.2, PBMC: 21%
  ADCC EC50, NUGC4-CLDN18.2 cells, PBMC (1 donor): 9.52 nM
[1]
  MFI_CHO-18.2/CHO-18.1 (@30 ug/ml): 811
[7]
  % ADCC @ 6.67 nM, NCI-N87-CLDN18.2, FcR-TANK: 14.6%
  ADCC EC50, NCI-N87-CLDN18.2, FcR-TANK: 2.25 nM
[3]
  MFI_CHO-18.2/CHO-18.1 (@30 ug/ml): 768
[11]
  ADCC EC50, NCI-N87-18.2 cells, FcR-TANK effectors: 73.2 nM
[12]
  MFI_SNU620 (@30 ug/ml): 1520 MFI
[13]
  EC50: 4.45 nM

B11: 282A12F3-VH-N60Q (antibody, human IgG1, kappa, V domains shown)
VH: QVQLKESGPVLVQPSQTLSLTCTVAGFSLTSYNVYWVRQPPGKGLEWMGVIWNTGATRYQSTLKSRLSISKDTSKSQVFLKMNSLQTEDTATYYCARDSAMPAIPFAYWGQGTLVTVSS
VL: DIVMTQSPSSLAVSAGETVTINCKSSQSLFGSVRQKNYLAWYQQKPGQSPKLLIYLASTRESGVPDRFIGSGSGTDFTLTISSVQAEDLAKYYCQQYYDIPWTFGGGTKLELKR
notes: chimeric human IgG1, PTM site removed
[14]
  binding result: binds

B12: 282A12F3-VH-N60E (antibody, human IgG1, kappa, V domains shown)
VH: QVQLKESGPVLVQPSQTLSLTCTVAGFSLTSYNVYWVRQPPGKGLEWMGVIWNTGATRYESTLKSRLSISKDTSKSQVFLKMNSLQTEDTATYYCARDSAMPAIPFAYWGQGTLVTVSS
VL: DIVMTQSPSSLAVSAGETVTINCKSSQSLFGSVRQKNYLAWYQQKPGQSPKLLIYLASTRESGVPDRFIGSGSGTDFTLTISSVQAEDLAKYYCQQYYDIPWTFGGGTKLELKR
notes: as for B11
[14]
  binding result: binds

B13: 413H9F8-VL-N31E (antibody, human IgG1, kappa, V domains shown)
VH: DVQLVESGGGSVQPGGSRRLSCAASGFTFSSFGMHWVRQAPEKGLEWVAYISSGSSPIYYVDKLKGRFTVSRDNPKNTLFLQMTSLRSEDTAMYYCARAGYAVRNALDYWGQGTSITVSS
VL: DIVMTQSPSSLSVSVGEKVTLSCKSSQSLLESGNQKNYLAWYQQKTGQPPKLLIYGASTRESGVPDRFIGSGSGTDFTLTISSVQAEDLAVYFCQNDLFYPLTFGAGTKLELKR
notes: as for B11
[14]
  binding result: binds

B14: 413H9F8 (mouse hybridoma antibody) (antibody, V domains shown)
VH: DVQLVESGGGSVQPGGSRRLSCAASGFTFSSFGMHWVRQAPEKGLEWVAYISSGSSPIYYVDKLKGRFTVSRDNPKNTLFLQMTSLRSEDTAMYYCARAGYAVRNALDYWGQGTSITVSS
VL: DIVMTQSPSSLSVSVGEKVTLSCKSSQSLLNSGNQKNYLAWYQQKTGQPPKLLIYGASTRESGVPDRFIGSGSGTDFTLTISSVQAEDLAVYFCQNDLFYPLTFGAGTKLELK
notes: as for B1
[4]
  EC50: 8.3 nM

B15: 364D1A7-VL-N31E (antibody, human IgG1, kappa, V domains shown)
VH: DVQLVESGGGLVQPGGSRKLSCAASGFTFSSFGMHWVRQAPEKGLEWVAYISSGSGSIYYADTVKGRFTLSRDNPKNTLFLQMTSLRSEDTAIYYCATSYYYGNALEYWGQGTSVTVSS
VL: DVVLTQSPSSLTVTEGEKVSMSCKSSQSLFESGNQKNYLTWYQQKPGQTPTLLIYWASTRKSGVPDRFTGSGSGTDFTLTINTVQAEDLAVYYCQNVYSYPLTFGAGTKLDLKR
notes: as for B11
[14]
  binding result: binds

B16: 364D1A7 (mouse hybridoma antibody) (antibody, V domains shown)
VH: DVQLVESGGGLVQPGGSRKLSCAASGFTFSSFGMHWVRQAPEKGLEWVAYISSGSGSIYYADTVKGRFTLSRDNPKNTLFLQMTSLRSEDTAIYYCATSYYYGNALEYWGQGTSVTVSS
VL: DVVLTQSPSSLTVTEGEKVSMSCKSSQSLFNSGNQKNYLTWYQQKPGQTPTLLIYWASTRKSGVPDRFTGSGSGTDFTLTINTVQAEDLAVYYCQNVYSYPLTFGAGTKLDLK
notes: as for B1
[4]
  EC50: 5.22 nM
